Data as given in the domain aggregation screens of Martell et al. (2025).

Test: soluble fraction after stress (log2 fold change); higher = more stays soluble; pooled small domains, quantitative proteomics
Settings: stress: pH 4
Procedure, shortened: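 Pooled custom libraries of small protein domains were stressed at pH 4 and then measured by high-throughput quantitative proteomics. The fold change in the amount of each domain that stays soluble after the acid stress serves as a measure of aggregation propensity. Fold changes are given on a log2 scale, and higher values mean more of the domain stayed soluble.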

Row | Sequence | soluble fraction (log2)
1 | HMELPPLQPGQPIDGRVEQQIRAGYYVVSVRGRGYEFQLPESARPGDLLRMVYLNDHPRLTFALLRIDNAN | -0.546
2 | HMELPVAVPHTELSPEALRGVVESFVLREGTDYGERDVPFEAKVAQVIRQLERGEARIMFDPVTQSVQIVT | -0.411
3 | HMELRSPMPGLIIEIPVSKGDIIKKDQSLIILEAMKMENVLTSPINGKIADIKVNVQDTVEKNNLLITFEN | -1.23
4 | HMELSESLENYLVVIYEAHLRNEIARIKDMTASLSVKHTSAIDAIKKLEDLGIVNYEKRGFVKLTQSGIEK | -0.177
5 | HMELSPAELGERLKVARETANVTQDAGAKAAGIARTTLVAIEKGQRSARIDELQTLSRRYGVSVNSLLRR | 0.096
6 | HMELSSRQAMIVDIVRKYEPITSEQIADKLNLTRSALRPDLAVLTMIGILEARPRVGYFFTGK | -0.269
7 | HMELSTQERIQILLEILNQREIISFSQTLRKKEGKKGVVVTFLASLELAKDGYVTLVQNKSDQIYLRSN | -0.428
8 | HMELTDSLTENAKKLYSVLTTEPRHIDDLSEEAKLSSADTLAALTELELYSLVALSEGKHYYK | -1.05
9 | HMELTKAELEVMQILWKLKKAFVGDILDRMVEPKPAYNTVSTVVRLLEKKGVVGHESFGKSHRYYPL | -0.0549
10 | HMELTVPDFTNMSLEDAINLAEKRDVRLEVTDSVFVKRLGRGFIYSQNPVAGSKVKKGRRILITINAIN | 0.113
11 | HMEMDPKELGRQVLAKRKEKGWSQEQLGKMAEISRNYVSQIERGEADSISIKIINRLAIALGVSPSDLGE | 0.21
12 | HMEMKHKNSQIFQAIKLKHMGFTPTQISEELRVSRTTINHWLTKAQLKDVKWEDIRENSADELVKLLFG | -0.322
13 | HMEMNPLDIQNKAAELAQQWLQLPVGERQKQMAAVRTSNPNLHAMAKQKMEEMRSQAESQGRQSLSQP | -0.0586
14 | HMEMTDKEEELMRIFWNHGPMFVREIVELYPEPRPHFNTLSTFVRNLEQKGFVSHEAVGGSFRYYAV | -1.44
15 | HMEMTEDEITKQFDAMEREAKKEIDTGADKRAFMYGVSRTAAGMAGKNPKYARFITDKAKEVIENIAKYK | 0.207
16 | HMENAEALLKKLSGVLSDYEYKMLMLYADGKTPRRIAQETGQSAKSVSNALFRARTKLKELYEDQ | -0.455
17 | HMENEIVMPVQINGKKRGDLTIARDADQASIQKAVLELDFVKAALNGGSPKKVIVVPQRIVNVV | 0.127
18 | HMENFKVFMKAVQEVSPVPVRFDEISSGAKGYYSNTEKEIVIQNGMSESQTMKTGIHEVTHAMLHDRDF | 0.22
19 | HMENFYGYEIINPEAKKFFITMGVNRYALEQWIKNKSEYGLIIVKSLYPFDPRLKLFLEKNRERIQNLIF | -0.305
20 | HMENKLIELTLSLDKSERLDKILTQELSHTRSVIQQWLKSGFVSVNGEIVKANYKAKDGDHVTIQIE | -0.379
21 | HMENKTGEVTVREDSALTLRQGPGTNYEKVGQAYRGDRVDVLEEQNGWYKVKTYDGKEAWASSSYISIV | -0.0485
22 | HMENMETSDIVARYSNMPGGIIEAFHEIVDRHGFLSQEAIIEAARGFGISVAEAYGVATFYSMFS | -0.42
23 | HMENMRLILASNLRRIREERRLSLNKVSELTGVSKSMLGQIERGESNPTLQTVWKIANGLRVSLTDLTEVP | 0.252

Row | Sequence | soluble fraction (log2)
24 | HMENRILLSEDSLKHLAQDIPIDIIEKLSVLKDQIYHRYDDFNSIVQGLLGGENYLKYKDNILSFVEQ | -0.311
25 | HMENSMDTDWDVSGVDPSQYRLLFSTLGAIAGVKDVGLNPDGLKIIHTPEALPAIKQAFDANNLKLKMRTN | -0.251
26 | HMENSPLTHREAEVMRLMSEGKSNRAISEHLVISEKTVKNHVSSILQKMSVDDRTQAVLQAIKNGWVD | 0.142
27 | HMENTGFKDKKGNYIFDGDIVKDILGNIMKVEFKHFKWQLIPLNKTAFNMPMVDWLDLETETLNAEIIGN | -1.69
28 | HMENTIESLLKAKGFNDIIVTVSDKQVDVVVSDKEIADNKRAQIEDVIKRKTGLEASAITITPA | -0.332
29 | HMENVLFVNVLSMTVRELAEMMKIPVNKIIQDSFSKGIMMNPNQRLEYDNFAELAKKYGITVKI | -0.691
30 | HMENVMLRNFAIQATEAGVIKLLEDQRTFVWGSNNKKFMTVPFDEHPYSAMAAFFKTDEGLEIYKSIEKKF | -1.43
31 | HMENYQIETFVKFIEESTGEDGVAFEDLFQNFTSRPAVITMFLALLEALRRNSIRIFQKEEFSQILIYPK | -1.21
32 | HMENYTYKYATSANVNIREEPNTDSTILGKTLLNTEFQVVEDVDGWSKITTEAGYAYIKSEYLSDTE | -0.392
33 | HMEPDEQAVKALIAEIDKLSKEKLTLKHEKKLKELREIYDDFTEEEKKLVTNYDILVKMEKRMEVLKKQEG | 0.19
34 | HMEPDEYTVRQAFMKFDVGGEGRVPRDKLKALLETLGLELSAQQVRESEEQLDPEGTGFTSYGDFLMWWN | -1.33
35 | HMEPEVSNTYEKVLGMHHFSSTRSHQLHDLVRQANALELSLGEIESIAQSAKDGAQVISDIKHWMEPNRQ | -0.185
36 | HMEPEWVINTDGSNLNEILAIDEVDSRKTFSNDLQEVYRTFGIEAARQILVQEIDAVIESSGA | -0.675
37 | HMEPFEQLLDRITSQTGKEPEEVVARMNELITERFDGNIRPEAALVIVAKRDNIQFMDLLDQLKQALL | -0.907
38 | HMEPIAFDNMHNRGIKGTNDWTQYEITLPFSAEAKKIFVAGLLVGKGKAWFDKFEVFLDGKNITDVAQI | -0.0075
39 | HMEPPPSYSALLKQISSGKVKELQLVPARREVIVTYPDGRSATVAILANDQQILRTAEAAGTPLLVK | 0.326
40 | HMEPQLVKSFDVQTELTYDQFLSKYPESHTLGRLLVQPEPIPFEPYKNIPGITPEKLLALHAKHLEAR | -0.169
41 | HMEPQSRTAYRLIEAMIVTHELPPGSRISEASLSAKLGIGRTPIREALQRLSFEGTVKIVPRSGAFVSEI | 0.183
42 | HMEPREALDGLISERGETYASISRLLGRNSAYIQQFIKRGSPARLDQSDIALLALHFDVPVEMLGGKE | 0.054
43 | HMEPTIGTATVTSGSRLNMRSAKSTSASVVTRIPSGATVGVISYASDWSKVTYNGYTGYVSSPYISMNG | -0.108
44 | HMEPVIELGDRTLPIEITRHRRARRLTLRLAADGSAVRITLPHWARSAEATAFAHARRDWLAAQLAK | 0.108
45 | HMEPVTETVYAMDTVNIRAAADQTSEKIGSVTVGTALTRTGTDGDWSIIDYNGTTGYVKSEFLSNTAPEV | -0.22
46 | HMEQLIIQEELSGKRLDQLVSLLFPSLTRAHAQKLIKEGAVLVNEKPRKPAYAVMTGELLTVELPEPE | -0.755

Row | Sequence | soluble fraction (log2)
47 | HMEQNHYEVLGVSRDAIPEEIRKAYFEYARKLHPDANPDPGAAEQFMRIQTAYDVLSNPDRRHEYDGLLPP | -0.249
48 | HMEQRREEFILLAKELLEKELRKQNLEVHENLKPDVLNDVAKRLGMVSMDDLLAAVGDGKITPGTVVSKIV | -0.389
49 | HMEQVLNVAVRRGELIMSSAAEQTVRIYSSAGSMVWQGKVSASDVTVELPSGVYVVNGKKVV | -0.513
50 | HMEQYFEDEELNDKFLEFLAMRKRVRKPVQTDRGMKMLLTSLHKLSGGDVGLMKQIIDQSLDNEWKKFVA | -1.12
51 | HMERDIATKHEVNRTVEAYSDIVKTLNLPSHKINLVEISFFNILKRSKPSPRENSILLGLAQKIKLHLEKK | -0.473
52 | HMERLKYSQVVDLFKGEQVKSFVLDESNQLKMELQDGSTVSYKLRSFEQFYLDLSDTVKEQKESGIITDYD | -1.72
53 | HMERPPHELLSDREYQTMVMIASGRTLTQIAEEMSLSPKTVSVYRARLLEKMKLKNNAELTHYALKHKLV | -0.2
54 | HMERPSLDQVLAHAKALGIAPARFVAYADGRWGTGWRLSPHGRARAWEELDRHRNDPLGYRDKLDVALQSG | 0.181
55 | HMESAQLIINVAGKVSNPGVYQLPQGSRVVDAIEAAGKQLKGVDISDINLARVLVDGEQILVGGV | -1.35
56 | HMESAVDVFRSILKEKGVTEEEVRQVVAARGKYTLETPIDDYPNEFLYGYVIRYWDQIFDIIQQSREAK | -1.57
57 | HMESEAKLGVAFNGKTRFDMTFPADADNKTIEEAVLADERAQKYLEGFQVAKVIIVPKRMVNIVLK | ≥ 0.43
58 | HMESEIYKKIEKSRLLELAFTKSQKGDLTGAYDLYYQAFTKYDVIADNQNRYFEDFISLIRRKQQQD | -0.822
59 | HMESGLPLPRFVSLGADEVNLRTGPGLRYPVAWVFVRKALPVEIVAEFEQWRRVRDFEGAEGWVHKAML | -0.527
60 | HMESGSSKINQDILETFTRGKKSLSISDISRLSGHHRHTVARYLDNLVSSGKLEMRQHGQKKKYYLSDIQP | 0.0709
61 | HMESILDDFPGLGAVRRAALLEHFGDIDRLRAASAVEITEVDGFGDVLARELHDFLHRPKPDA | -0.768
62 | HMESKKKTYTVKSGDTLVSILKREGVPQELIFKDYLGLFLELNPQISDINKLRVGQEIVLPVPG | 0.3
63 | HMESLGEKIKNIRISNNLKQSELADILHISEKTISSWENNRTTPDLNMIYKISNYFKKSFYYLISDDYI | -0.283
64 | HMESMIGSLRGRLLELFGDGEVLIEVGGVGYRVIVTPTTTVRLGDVGGDVFVHVHHHIREADQTLYGF | -0.722
65 | HMESPSGGHRIALAFDQGTARAVDATYARLTGAGYEGRTKPWDAPWGQRYATVFDPDGNSVDLFAALE | -0.544
66 | HMESRDRVRQASAAGYRFMSTMAGHEPGFEEASRALFAGDQTAFEARITAWPVDVQTHLKKILAEAFTT | -0.939
67 | HMESRLQAAIALRKAGEHEQSREALKILADEPALRAQALLNIAWSFDNQGHERDAEGYYLAAIE | 0.127
68 | HMESSKLQASIINYLERRPTQKFTAEELFKGLSLEKASVFNELVKELTSLERSHKVEITADDKFKIARPQ | 0.0446
